# Reference: paper PMC9352680, “A comprehensive thermodynamic model for RNA binding by the Saccharomyces cerevisiae Pumilio protein PUF4”
# T1: PUF4 RNA-binding domain (Saccharomyces cerevisiae, UniProt P25339 537-888)
# T1 sequence: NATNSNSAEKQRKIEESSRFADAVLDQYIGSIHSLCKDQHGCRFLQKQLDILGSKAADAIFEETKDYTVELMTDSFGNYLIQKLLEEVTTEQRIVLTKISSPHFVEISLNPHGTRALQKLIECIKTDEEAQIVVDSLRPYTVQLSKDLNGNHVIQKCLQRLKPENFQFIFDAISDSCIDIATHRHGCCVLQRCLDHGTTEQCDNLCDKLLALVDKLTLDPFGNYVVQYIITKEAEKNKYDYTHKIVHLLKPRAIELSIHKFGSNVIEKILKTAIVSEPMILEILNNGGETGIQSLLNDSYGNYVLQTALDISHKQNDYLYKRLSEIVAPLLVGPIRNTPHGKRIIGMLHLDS
# Target: T1, PUF4 RNA-binding domain
# Experiment: Mg; RNA-MaP; 20 mM Na-HEPES pH 7.4, 30 mM KOAc, 0.75 mM MgCl2, 0.1% Tween-20, 5% glycerol, 0.1 mg/mL BSA, 2 mM DTT; 25 C; 0.0125-409.6 nM protein
# Details: tags: N-His6-TEV cleaved; C-SNAP kept, Cy3B-labelled; label: tethered on chip by stalled RNA polymerase
row,Binder,Kd [nM]
1,UCUCUUCUUGUAUAUAGUUCUCUU (ssRNA) [Id_ii_S1_P3E.2_K3.1_C3.2_H3.1_A3.1_F3.1_T3.2_[T9G]_[A10T]],3.72
2,UCUCUUGUUAUAUAUACCUCUCUU (ssRNA) [Id_ii_S1_P3E.3_K3.2_C3.2_[C-2G]_H3.2_A3.1_F3.1_T3.2_[T9C]_[A10C]],35.9
3,UCUCUUCUUGUAUAUAUUUCUCUU (ssRNA) [Id_ii_S1_P3E.2_K3.1_C3.2_H3.1_A3.1_F3.1_T3.2_[A10T]],5.12
4,UCUCUUGCUAUAUAUACUUCUCUU (ssRNA) [Id_ii_S1_P3E.3_K3.2_C3.2_[C-2G]_[T-1C]_H3.2_A3.1_F3.1_T3.2_[T9C]_[A10T]],853
5,UCUCUUGUUAUAUAUAUGUCUCUU (ssRNA) [Id_ii_S1_P3E.3_K3.2_C3.2_[C-2G]_H3.2_A3.1_F3.1_T3.2_[A10G]],46.3
6,UCUCUUCAUGUAUAUAGUUCUCUU (ssRNA) [Id_ii_S1_P3E.2_K3.1_C3.2_[T-1A]_H3.1_A3.1_F3.1_T3.2_[T9G]_[A10T]],5.84
7,UCUCUUUGUAUAUAUAGUUCUCUU (ssRNA) [Id_ii_S1_P3E.3_K3.2_C3.2_[C-2T]_[T-1G]_H3.2_A3.1_F3.1_T3.2_[T9G]_[A10T]],2.33
8,UCUCUUCCUGUAUAUACAUCUCUU (ssRNA) [Id_ii_S1_P3E.2_K3.1_C3.2_[T-1C]_H3.1_A3.1_F3.1_T3.2_[T9C]],17.7
9,UCUCUUCUUGUAUAUACGUCUCUU (ssRNA) [Id_ii_S1_P3E.2_K3.1_C3.2_H3.1_A3.1_F3.1_T3.2_[T9C]_[A10G]],10.9
10,UCUCUUGUUAUAUAUAUCUCUCUU (ssRNA) [Id_ii_S1_P3E.3_K3.2_C3.2_[C-2G]_H3.2_A3.1_F3.1_T3.2_[A10C]],24.8
11,UCUCUUGAUAUAUAUAAUUCUCUU (ssRNA) [Id_ii_S1_P3E.3_K3.2_C3.2_[C-2G]_[T-1A]_H3.2_A3.1_F3.1_T3.2_[T9A]_[A10T]],1040
12,UCUCUUCUUGUAUAUAACUCUCUU (ssRNA) [Id_ii_S1_P3E.2_K3.1_C3.2_H3.1_A3.1_F3.1_T3.2_[T9A]_[A10C]],8.53
13,UCUCUUCGUAAAUUAUCUCUU (ssRNA) [Ib_S1_P4E.1_K4.1_C4.1_H4.1_[T1C]_A4.1_[T5A]_F4.1_T4.1],139
14,UCUCUUGGUAUAUAUAACUCUCUU (ssRNA) [Id_ii_S1_P3E.3_K3.2_C3.2_[C-2G]_[T-1G]_H3.2_A3.1_F3.1_T3.2_[T9A]_[A10C]],782
15,UCUCUUCAUGUAUAUAGCUCUCUU (ssRNA) [Id_ii_S1_P3E.2_K3.1_C3.2_[T-1A]_H3.1_A3.1_F3.1_T3.2_[T9G]_[A10C]],5.33
16,UCUCUUCUUGUAUAUAUAUCUCUU (ssRNA) [Id_ii_S1_P3E.2_K3.1_C3.2_H3.1_A3.1_F3.1_T3.2],3.83

row,Binder,Kd [nM]
1,UCUCUUUGUAUAUAUAAGUCUCUU (ssRNA) [Id_ii_S1_P3E.3_K3.2_C3.2_[C-2T]_[T-1G]_H3.2_A3.1_F3.1_T3.2_[T9A]_[A10G]],8.25
2,UCUCUUGUUAUAUAUAUAUCUCUU (ssRNA) [Id_ii_S1_P3E.3_K3.2_C3.2_[C-2G]_H3.2_A3.1_F3.1_T3.2],41.1
3,UCUCUUCAUGUAUAUAAUUCUCUU (ssRNA) [Id_ii_S1_P3E.2_K3.1_C3.2_[T-1A]_H3.1_A3.1_F3.1_T3.2_[T9A]_[A10T]],11.6
4,UCUCUUGGUAUAUAUAAUUCUCUU (ssRNA) [Id_ii_S1_P3E.3_K3.2_C3.2_[C-2G]_[T-1G]_H3.2_A3.1_F3.1_T3.2_[T9A]_[A10T]],524
5,UCUCUUGCUAUAUAUAACUCUCUU (ssRNA) [Id_ii_S1_P3E.3_K3.2_C3.2_[C-2G]_[T-1C]_H3.2_A3.1_F3.1_T3.2_[T9A]_[A10C]],1500
6,UCUCUUCAUGUAUAUAACUCUCUU (ssRNA) [Id_ii_S1_P3E.2_K3.1_C3.2_[T-1A]_H3.1_A3.1_F3.1_T3.2_[T9A]_[A10C]],16.9
7,UCUCUUCCUGUAUAUAACUCUCUU (ssRNA) [Id_ii_S1_P3E.2_K3.1_C3.2_[T-1C]_H3.1_A3.1_F3.1_T3.2_[T9A]_[A10C]],6.69
8,UCUCUUGUUAUAUAUAAUUCUCUU (ssRNA) [Id_ii_S1_P3E.3_K3.2_C3.2_[C-2G]_H3.2_A3.1_F3.1_T3.2_[T9A]_[A10T]],44.6
9,UCUCUUGAUAUAUAUAGCUCUCUU (ssRNA) [Id_ii_S1_P3E.3_K3.2_C3.2_[C-2G]_[T-1A]_H3.2_A3.1_F3.1_T3.2_[T9G]_[A10C]],500
10,UCUCUUUGUAUAUAUAGCUCUCUU (ssRNA) [Id_ii_S1_P3E.3_K3.2_C3.2_[C-2T]_[T-1G]_H3.2_A3.1_F3.1_T3.2_[T9G]_[A10C]],3.66
11,UCUCUUCUUGUAUAUAAAUCUCUU (ssRNA) [Id_ii_S1_P3E.2_K3.1_C3.2_H3.1_A3.1_F3.1_T3.2_[T9A]],8.21
12,UCUCUUCAUGUAUAUAAGUCUCUU (ssRNA) [Id_ii_S1_P3E.2_K3.1_C3.2_[T-1A]_H3.1_A3.1_F3.1_T3.2_[T9A]_[A10G]],6.69
13,UCUCUUCCUGUAUAUAUGUCUCUU (ssRNA) [Id_ii_S1_P3E.2_K3.1_C3.2_[T-1C]_H3.1_A3.1_F3.1_T3.2_[A10G]],7.59
14,UCUCUUUGUAUAUAUAAUUCUCUU (ssRNA) [Id_ii_S1_P3E.3_K3.2_C3.2_[C-2T]_[T-1G]_H3.2_A3.1_F3.1_T3.2_[T9A]_[A10T]],8.44
15,UCUCUUCUUGUAUAUAUCUCUCUU (ssRNA) [Id_ii_S1_P3E.2_K3.1_C3.2_H3.1_A3.1_F3.1_T3.2_[A10C]],6.72
